Target: the molecule itself
Assay: SEC-SAXS; Superdex 200 Increase 3.2/300 in 20 mM Tris HCl 8.0, 300 mM NaCl; protein at 3–10 mg/ml; Guinier analysis, P(r), MONSA and BilboMD modelling

B1: CtIP-NTD (18–145) (domain or fragment, human, UniProt Q99708 18-145, looked up)
chain: SDFKDLWTKLKECHDREVQGLQVKVTKLKQERILDAQRLEEFFTKNQQLREQQKVLHETIKVLEDRLRAGLCDRCAVTEEHMRKKQQEFENIRQQNLKLITELMNERNTLQEENKKLSEQLQQKIEND
notes: also called CtIP N-terminal domain; source: E. coli BL21(DE3) Rosetta 2, purified (Ni-NTA, TEV cleavage, Strep-Tactin, SEC); not shown: His6, N-terminal, cleaved; MBP, N-terminal, cleaved
- stoichiometry N: 4

B2: CtIP-cNTD 31–145 (wild type) (domain or fragment, human, UniProt Q99708 31-145, looked up)
chain: HDREVQGLQVKVTKLKQERILDAQRLEEFFTKNQQLREQQKVLHETIKVLEDRLRAGLCDRCAVTEEHMRKKQQEFENIRQQNLKLITELMNERNTLQEENKKLSEQLQQKIEND
notes: also called wild-type CtIP-cNTD; C-terminal NTD; source: E. coli BL21(DE3) Rosetta 2, purified (Ni-NTA, TEV cleavage, Strep-Tactin, SEC); not shown: His6, N-terminal, cleaved; MBP, N-terminal, cleaved
- stoichiometry N: 2
